Measured values as given in PMC6718452.

Target: FITC-labeled amyloid-β (Aβ), aggregated into amyloid-derived diffusible ligands (ADDLs)
Assay: SEC; FITC-labeled Aβ aggregated by the Freir protocol (ADDLs); solvent PBS

stoichiometry N: 2
Substance: FITC-labeled amyloid-β (Aβ), aggregated into amyloid-derived diffusible ligands (ADDLs) (peptide)
